Data reported in paper PMC12483203.

Molecular target: Hu-1 G614 S-6P homotrimer (SARS-CoV-2 Wuhan-Hu-1 D614G spike ectodomain, hexaproline-stabilised) (SARS-CoV-2) (UniProt P0DTC2)
Assay: SEC

“Hu-1 G614 S-6P homotrimer (SARS-CoV-2 Wuhan-Hu-1 D614G spike ectodomain, hexaproline-stabilised) (from UniProt P0DTC2 14-1211) (natural protein)” showed a stoichiometry N of 3.
